# Measured values taken from patent publication US20240117038A1 (Ablynx, published 2024).
# Substitutions are numbered along the chain they refer to. Names may count otherwise.
# T1: human CX3CR1 (human, UniProt P49238 1-355)
# T1 construct: Overexpressed on CHO K1, Ba/F3 or HEK293T cells; also called huCX3CR1; hCX3CR1
# T1 sequence: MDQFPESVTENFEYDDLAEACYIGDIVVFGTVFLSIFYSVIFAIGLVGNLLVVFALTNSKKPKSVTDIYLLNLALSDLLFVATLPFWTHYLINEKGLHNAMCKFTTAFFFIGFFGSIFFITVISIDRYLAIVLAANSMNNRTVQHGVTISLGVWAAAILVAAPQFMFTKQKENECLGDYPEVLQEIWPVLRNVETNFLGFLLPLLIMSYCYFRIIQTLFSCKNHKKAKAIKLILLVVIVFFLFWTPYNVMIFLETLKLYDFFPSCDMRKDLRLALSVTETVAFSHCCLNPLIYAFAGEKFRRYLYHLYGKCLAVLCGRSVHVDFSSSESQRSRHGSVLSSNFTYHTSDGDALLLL
# T2: cynomolgus CX3CR1 (cynomolgus monkey (Macaca fascicularis), UniProt P49238 1-355 (human entry))
# T2 construct: Overexpressed on CHO K1 cells; also called cyno CX3CR1; cyCX3CR1
# T2 chain: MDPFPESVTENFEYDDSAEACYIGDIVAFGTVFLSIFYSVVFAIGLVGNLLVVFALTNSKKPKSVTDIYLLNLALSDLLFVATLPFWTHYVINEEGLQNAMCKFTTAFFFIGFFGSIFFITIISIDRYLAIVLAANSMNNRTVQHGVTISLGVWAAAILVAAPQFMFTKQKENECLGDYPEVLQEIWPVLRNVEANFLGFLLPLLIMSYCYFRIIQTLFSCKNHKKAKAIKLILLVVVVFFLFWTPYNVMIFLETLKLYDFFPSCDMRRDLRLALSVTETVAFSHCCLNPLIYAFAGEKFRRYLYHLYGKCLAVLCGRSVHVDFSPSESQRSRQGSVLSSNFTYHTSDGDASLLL
# B1: A041600042 (VHH)
# chain: DVQLVESGGGSVQPGGSLRLSCAASGSIFSSTAMAWYRQAPGKRRDLVAAINTVGVTKYADSVKGRFTISRDNAKNTVYLQMNSLRPEDTALYYCTSDPRRGWDTRYWGQGTLVTVSSGGGGSGGGGSGGGGSGGGGSEVQLVESGGGSVQPGGSLRLSCAASGSIFSSTAMAWYRQAPGKRRDLVAAINTVGVTKYADSVKGRFTISRDNAKNTVYLQMNSLRPEDTALYYCTSDPRRGWDTRYWGQGTLVTVSSGGGGSGGGGSGGGGSGGGGSEVQLVESGGGVVQPGGSLRLSCAASGFTFRSFGMSWVRQAPGKGPEWVSSISGSGSDTLYADSVKGRFTISRDNSKNTLYLQMNSLRPEDTALYYCTIGGSLSRSSQGTLVTVSSA
# notes: Trivalent ISVD construct (two anti-CX3CR1 ISVDs, one anti-albumin ISVD), C-terminal alanine included in the entry; also called 66B02_SO (E1D)-20GS-66B02_SO-20GS-ALB23002-A
# B2: A041600026 (VHH)
# chain: DVQLVESGGGSVQPGGSLRLSCAASGSIFSSTAMAWYRQAPGKRRDLVAAINTVGVTKYADSVKGRFTISRDNAKNTVYLQMNSLRPEDTALYYCTSDPRRGWDTRYWGQGTLVTVSSGGGGSGGGGSGGGGSGGGGSEVQLVESGGGVVQPGGSLRLSCAASGFTFRSFGMSWVRQAPGKGPEWVSSISGSGSDTLYADSVKGRFTISRDNSKNTLYLQMNSLRPEDTALYYCTIGGSLSRSSQGTLVTVSSGGGGSGGGGSGGGGSGGGGSEVQLVESGGGSVQPGGSLRLSCAASGSIFSSTAMAWYRQAPGKRRDLVAAINTVGVTKYADSVKGRFTISRDNAKNTVYLQMNSLRPEDTALYYCTSDPRRGWDTRYWGQGTLVTVSSA
# notes: Trivalent ISVD construct; also called 66B02_SO (E1D)-20GS-ALB23002-20GS-66B02_SO-A
# B3: A041600010 (VHH)
# chain: DVQLVESGGGSVQPGGSLRLSCAASGSIFSSTAMAWYRQAPGKRRDLVAAINTVGVTKYADSVKGRFTISRDNAKNTVYLQMNSLRPEDTALYYCTSDPRRGWDTRYWGQGTLVTVSSGGGGSGGGSEVQLVESGGGVVQPGGSLRLSCAASGFTFRSFGMSWVRQAPGKGPEWVSSISGSGSDTLYADSVKGRFTISRDNSKNTLYLQMNSLRPEDTALYYCTIGGSLSRSSQGTLVTVSSGGGGSGGGSEVQLVESGGGSVQPGGSLRLSCAASGSIFSSTAMAWYRQAPGKRRDLVAAINTVGVTKYADSVKGRFTISRDNAKNTVYLQMNSLRPEDTALYYCTSDPRRGWDTRYWGQGTLVTVSSA
# notes: Trivalent ISVD construct (two anti-CX3CR1 ISVDs, one anti-albumin ISVD); also called 66B02_SO (E1D)-9GS-ALB23002-9GS-66B02_SO-A
# B4: A041600031 (VHH)
# chain: B3 chain with R295Q, A301V, N303S, V307I, P350A
# notes: Trivalent ISVD construct (two anti-CX3CR1 ISVDs, one anti-albumin ISVD), C-terminal alanine included in the entry; also called 66B02_SO (E1D)-9GS-ALB23002-9GS-54A12_SO-A
# B5: A041600011 (VHH)
# chain: DVQLVESGGGSVQPGGSLRLSCAASGSIFSSTAMAWYRQAPGKRRDLVAAINTVGVTKYADSVKGRFTISRDNAKNTVYLQMNSLRPEDTALYYCTSDPRRGWDTRYWGQGTLVTVSSGGGGSGGGSEVQLVESGGGSVQPGGSLRLSCAASGSIFSSTAMAWYRQAPGKRRDLVAAINTVGVTKYADSVKGRFTISRDNAKNTVYLQMNSLRPEDTALYYCTSDPRRGWDTRYWGQGTLVTVSSGGGGSGGGSEVQLVESGGGVVQPGGSLRLSCAASGFTFRSFGMSWVRQAPGKGPEWVSSISGSGSDTLYADSVKGRFTISRDNSKNTLYLQMNSLRPEDTALYYCTIGGSLSRSSQGTLVTVSSA
# notes: Trivalent ISVD construct (two anti-CX3CR1 ISVDs, one anti-albumin ISVD), C-terminal alanine included in the entry; also called 66B02_SO (E1D)-9GS-66B02_SO-9GS-ALB23002-A
# B6: A041600040 (VHH)
# chain: B5 chain with R171Q, A177V, N179S, V183I, P226A
# notes: Trivalent ISVD construct (two anti-CX3CR1 ISVDs, one anti-albumin ISVD), C-terminal alanine included in the entry; also called 66B02_SO (E1D)-9GS-54A12_SO-9GS-ALB23002-A
# B7: 66B02_SO (VHH)
# VHH: EVQLVESGGGSVQPGGSLRLSCAASGSIFSSTAMAWYRQAPGKRRDLVAAINTVGVTKYADSVKGRFTISRDNAKNTVYLQMNSLRPEDTALYYCTSDPRRGWDTRYWGQGTLVTVSS
# notes: Monovalent anti-CX3CR1 ISVD; The oligomerization and Tagg assays used a 3xFLAG-His6 tagged form made in E. coli
# B8: 54A12_SO (VHH)
# VHH: B7 VHH with R44Q, A50V, N52S, V56I, P99A
# notes: as for B7
# Target: T1, human CX3CR1
# Assay: competition flow cytometry vs soluble huCX3CL1-AF647 on CHO K1 huCX3CR1 cells, 30 uM HSA
% inhibition [%],IC50 [pM],Binder
95,1400,B1
102,1100,B2
94,3800,B3
96,2100,B4
94,660,B5
101,990,B6

# Target: T1, human CX3CR1
# Assay: competition flow cytometry vs huCX3CL1-AF647 (2E-10 M) on CHO K1 human CX3CR1 cells, 30 uM HSA
# Description: (§1) CHO cells overexpressing human or cyno CX3CR1 were generated using techniques known in the art. Cells were harvested and resuspended in assay buffer (PBS, 2% FBS, 0.05% NaN3). The cells were seeded in 384-well Bio-One V-bottom plates (Greiner, Cat. No. 781280), with a total of 2E04 cells seeded per well. After washing, ISVD proteins (starting from 250 nM, 3-fold dilution, 11 points, in assay buffer) were premixed with 30 μM HSA (Sigma-Aldrich, Cat. No. A8763) and human CX3CL1 labelled with AF647 (R&D Systems, Cat. No. 365-FR; labelled in house) at a final concentration of 2E-10 M (˜EC30) and added to the cells for 4 hours at 4° C. Plates were washed 3 times and cells were resuspended in PI (Miltenyi Biotec, Cat. No. 130-093-233, 1000-fold diluted in assay buffer). Cell suspensions were analysed with iQue Screener PLUS or iQue 3(Intellicyt). The IC50s were estimated by dose response modelling. Curves were fit using 4 parameter logistic regression in GraphPad (GraphPad Software Inc.).
row,IC50 [pM],Binder
1,480,B7
2,890,B8

# Target: T1, human CX3CR1
# Assay: flow cytometry on CHO K1 huCX3CR1 cells, 30 uM HSA
# Description: (§2) CHO cells overexpressing human or cynomolgus CX3CR1 were generated using techniques known in the art. Cells were harvested and resuspended in assay buffer (PBS, 2% FBS, 0.05% NaN3) and seeded separately in 384-well Bio-One V-bottom plates (Greiner, Cat. No. 781280), with a total of 2E04 cells seeded per well. After washing, serial dilutions of multivalent ISVD construct (starting from 250 nM, 3-fold dilution, 11 points, diluted in assay buffer), were added and incubated for 4 hours at 4° C. Binding was performed in the presence of 30 uM HSA (Sigma-Aldrich, Cat. No. A8763). Plates were then washed 3 times and cells were incubated with an anti-VHH mouse antibody (3300-fold diluted in assay buffer) for 30 minutes at 4′° C. […] Plates were finally washed 3 times and cells were resuspended in PI (Miltenyi Biotec, Cat. No. 130-093-233, 1000-fold diluted in assay buffer). Cell suspensions were analyzed with iQue Screener PLUS (Intellicyt). EC50s were estimated by dose response modelling. Curves were fit using 4 parameter logistic regression in GraphPad (GraphPad Software Inc.). A purified anti-human CX3CR1 antibody [K0124E1] (BioLegend, Cat. No. 355701/355702) was used as positive control to detect CX3CR1 expression on the cell surface.
EC50 [pM],top,Binder
130,40000,B1
290,35600,B2
410,22800,B3
300,31300,B4
79,44200,B5
100,42200,B6

# Target: T2, cynomolgus CX3CR1
# Assay: competition flow cytometry vs soluble huCX3CL1-AF647 on CHO K1 cyCX3CR1 cells, 30 uM HSA
% inhibition [%],IC50 [pM],Binder
104,670,B1
104,1200,B2
113,2400,B3
105,1200,B4
111,1200,B5
117,620,B6

# Target: T2, cynomolgus CX3CR1
# Assay: flow cytometry on CHO K1 cyCX3CR1 cells, 30 uM HSA
# Description: as §2
EC50 [pM],top,Binder
120,373000,B1
250,290000,B2
460,214000,B3
320,300000,B4
110,331000,B5
140,363000,B6

# Target: T2, cynomolgus CX3CR1
# Assay: competition flow cytometry vs huCX3CL1-AF647 (2E-10 M) on CHO K1 cyno CX3CR1 cells, 30 uM HSA
# Description: as §1
row,IC50 [pM],Binder
1,2900,B7
2,6000,B8
